From the Human Domainome abundance scans (Beltran et al. 2025)
± gives the uncertainty stated by the source.

Experiment: abundance fitness (aPCA) (normalised: wild type 0, dead -1); higher = more abundant; growth selection in yeast, the domain comes from the species named
Details: Homo sapiens

| Substance | abundance fitness |
| --- | --- |
| Lipoamide acyltransferase component of branched-chain alpha-keto acid dehydrogenase complex, mitochondrial L201N, P11182 | -0.119 ± 0.093 |
| Lipoamide acyltransferase component of branched-chain alpha-keto acid dehydrogenase complex, mitochondrial K196H, P11182 | -0.17 ± 0.062 |
| Lipoamide acyltransferase component of branched-chain alpha-keto acid dehydrogenase complex, mitochondrial I205T, P11182 | -0.337 ± 0.057 |
| Lipoamide acyltransferase component of branched-chain alpha-keto acid dehydrogenase complex, mitochondrial K202W, P11182 | -0.276 ± 0.056 |
| Lipoamide acyltransferase component of branched-chain alpha-keto acid dehydrogenase complex, mitochondrial G214V, P11182 | -0.08 ± 0.065 |
| Lipoamide acyltransferase component of branched-chain alpha-keto acid dehydrogenase complex, mitochondrial I186R, P11182 | -0.722 ± 0.049 |
| Lipoamide acyltransferase component of branched-chain alpha-keto acid dehydrogenase complex, mitochondrial R178I, P11182 | 0.002 ± 0.059 |
| Lipoamide acyltransferase component of branched-chain alpha-keto acid dehydrogenase complex, mitochondrial G195R, P11182 | -0.591 ± 0.042 |
| Lipoamide acyltransferase component of branched-chain alpha-keto acid dehydrogenase complex, mitochondrial E190C, P11182 | -0.315 ± 0.12 |
| Lipoamide acyltransferase component of branched-chain alpha-keto acid dehydrogenase complex, mitochondrial K202I, P11182 | -0.017 ± 0.17 |
| Lipoamide acyltransferase component of branched-chain alpha-keto acid dehydrogenase complex, mitochondrial T174I, P11182 | -0.601 ± 0.11 |
| Lipoamide acyltransferase component of branched-chain alpha-keto acid dehydrogenase complex, mitochondrial V192D, P11182 | -0.159 ± 0.12 |
| Lipoamide acyltransferase component of branched-chain alpha-keto acid dehydrogenase complex, mitochondrial G195A, P11182 | -0.464 ± 0.044 |
| Lipoamide acyltransferase component of branched-chain alpha-keto acid dehydrogenase complex, mitochondrial L206K, P11182 | -0.113 ± 0.065 |
| Lipoamide acyltransferase component of branched-chain alpha-keto acid dehydrogenase complex, mitochondrial L206G, P11182 | -0.149 ± 0.033 |
| Lipoamide acyltransferase component of branched-chain alpha-keto acid dehydrogenase complex, mitochondrial T213P, P11182 | -0.075 ± 0.065 |
| Lipoamide acyltransferase component of branched-chain alpha-keto acid dehydrogenase complex, mitochondrial V191A, P11182 | -0.52 ± 0.058 |
| Lipoamide acyltransferase component of branched-chain alpha-keto acid dehydrogenase complex, mitochondrial S189Q, P11182 | -0.097 ± 0.054 |
| Lipoamide acyltransferase component of branched-chain alpha-keto acid dehydrogenase complex, mitochondrial N184Q, P11182 | -0.16 ± 0.1 |
| Nanos homolog 2 Y113H, P60321 | 0.057 ± 0.11 |
| Lipoamide acyltransferase component of branched-chain alpha-keto acid dehydrogenase complex, mitochondrial K196C, P11182 | -0.22 ± 0.051 |
| Lipoamide acyltransferase component of branched-chain alpha-keto acid dehydrogenase complex, mitochondrial R199I, P11182 | -0.142 ± 0.09 |
| Lipoamide acyltransferase component of branched-chain alpha-keto acid dehydrogenase complex, mitochondrial G198C, P11182 | -0.666 ± 0.14 |
| Lipoamide acyltransferase component of branched-chain alpha-keto acid dehydrogenase complex, mitochondrial Q212I, P11182 | -0.255 ± 0.089 |
| Lipoamide acyltransferase component of branched-chain alpha-keto acid dehydrogenase complex, mitochondrial Q212L, P11182 | -0.189 ± 0.043 |

| Substance | abundance fitness |
| --- | --- |
| Lipoamide acyltransferase component of branched-chain alpha-keto acid dehydrogenase complex, mitochondrial L201V, P11182 | -0.096 ± 0.037 |
| Lipoamide acyltransferase component of branched-chain alpha-keto acid dehydrogenase complex, mitochondrial P175Q, P11182 | -0.008 ± 0.048 |
| Lipoamide acyltransferase component of branched-chain alpha-keto acid dehydrogenase complex, mitochondrial G198P, P11182 | -0.776 ± 0.097 |
| Lipoamide acyltransferase component of branched-chain alpha-keto acid dehydrogenase complex, mitochondrial I200H, P11182 | -0.678 ± 0.089 |
| Lipoamide acyltransferase component of branched-chain alpha-keto acid dehydrogenase complex, mitochondrial Y208A, P11182 | 0.018 ± 0.036 |
| Lipoamide acyltransferase component of branched-chain alpha-keto acid dehydrogenase complex, mitochondrial A173C, P11182 | -0.163 ± 0.092 |
| Lipoamide acyltransferase component of branched-chain alpha-keto acid dehydrogenase complex, mitochondrial L172E, P11182 | -0.107 ± 0.061 |
| Lipoamide acyltransferase component of branched-chain alpha-keto acid dehydrogenase complex, mitochondrial P175T, P11182 | -0.016 ± 0.052 |
| Lipoamide acyltransferase component of branched-chain alpha-keto acid dehydrogenase complex, mitochondrial Y208T, P11182 | -0.073 ± 0.074 |
| Lipoamide acyltransferase component of branched-chain alpha-keto acid dehydrogenase complex, mitochondrial D204T, P11182 | -0.973 ± 0.064 |
| Lipoamide acyltransferase component of branched-chain alpha-keto acid dehydrogenase complex, mitochondrial P175W, P11182 | -0.136 ± 0.042 |
| Lipoamide acyltransferase component of branched-chain alpha-keto acid dehydrogenase complex, mitochondrial D204H, P11182 | -0.946 ± 0.16 |
| Lipoamide acyltransferase component of branched-chain alpha-keto acid dehydrogenase complex, mitochondrial R179E, P11182 | 0.011 ± 0.068 |
| Lipoamide acyltransferase component of branched-chain alpha-keto acid dehydrogenase complex, mitochondrial D204A, P11182 | -1.24 ± 0.064 |
| Lipoamide acyltransferase component of branched-chain alpha-keto acid dehydrogenase complex, mitochondrial N185Q, P11182 | -0.155 ± 0.11 |
| Lipoamide acyltransferase component of branched-chain alpha-keto acid dehydrogenase complex, mitochondrial D204V, P11182 | -1.1 ± 0.072 |
| Lipoamide acyltransferase component of branched-chain alpha-keto acid dehydrogenase complex, mitochondrial L206D, P11182 | 0.01 ± 0.065 |
| Nanos homolog 2 Q80C, P60321 | 0.191 ± 0.11 |
| Lipoamide acyltransferase component of branched-chain alpha-keto acid dehydrogenase complex, mitochondrial K196S, P11182 | -0.121 ± 0.044 |
| Lipoamide acyltransferase component of branched-chain alpha-keto acid dehydrogenase complex, mitochondrial V191M, P11182 | -0.075 ± 0.051 |
| Lipoamide acyltransferase component of branched-chain alpha-keto acid dehydrogenase complex, mitochondrial G214C, P11182 | -0.066 ± 0.057 |
| Lipoamide acyltransferase component of branched-chain alpha-keto acid dehydrogenase complex, mitochondrial L201W, P11182 | -0.683 ± 0.052 |
| Lipoamide acyltransferase component of branched-chain alpha-keto acid dehydrogenase complex, mitochondrial N185L, P11182 | -0.514 ± 0.26 |
| Lipoamide acyltransferase component of branched-chain alpha-keto acid dehydrogenase complex, mitochondrial L180K, P11182 | -0.296 ± 0.2 |
| Lipoamide acyltransferase component of branched-chain alpha-keto acid dehydrogenase complex, mitochondrial L206W, P11182 | -0.135 ± 0.052 |
